Data on two molecules can be found in PMC4330389, “Domain organization within the nuclear export factor Mex67:Mtr2 generates an extended mRNA binding surface”.

As usually defined, the Kd is the constant that tells how readily two partners part at equilibrium.

Test in all cases: fluorescence anisotropy; 20 mM Tris pH 8.0, 50 mM NaCl, 10 nM DY-547 RNA; temperature not stated
Background: Fluorescence polarisation rises when a labelled molecule tumbles more slowly, as on binding a larger partner.

Data set [1] deals with T1, Mex67ΔUBA L263Y+M265Y;Mtr2 (Saccharomyces cerevisiae;Saccharomyces …, UniProt Q99257;P34232 1-487;1-184, L263Y;M265Y|).
T1 sequence 1: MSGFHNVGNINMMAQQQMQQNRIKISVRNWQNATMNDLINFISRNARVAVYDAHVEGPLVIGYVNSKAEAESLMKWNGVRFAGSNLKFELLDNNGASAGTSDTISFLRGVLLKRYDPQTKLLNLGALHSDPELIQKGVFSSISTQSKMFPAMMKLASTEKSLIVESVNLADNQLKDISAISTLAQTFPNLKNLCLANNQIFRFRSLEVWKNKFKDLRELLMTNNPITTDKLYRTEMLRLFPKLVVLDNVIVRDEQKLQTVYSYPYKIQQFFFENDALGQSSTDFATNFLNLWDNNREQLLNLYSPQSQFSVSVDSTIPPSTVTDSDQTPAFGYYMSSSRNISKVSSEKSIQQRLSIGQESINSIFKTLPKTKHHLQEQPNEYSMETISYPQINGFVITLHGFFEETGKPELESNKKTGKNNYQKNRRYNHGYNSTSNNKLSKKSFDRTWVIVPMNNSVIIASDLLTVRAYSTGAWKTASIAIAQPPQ
T1 sequence 2: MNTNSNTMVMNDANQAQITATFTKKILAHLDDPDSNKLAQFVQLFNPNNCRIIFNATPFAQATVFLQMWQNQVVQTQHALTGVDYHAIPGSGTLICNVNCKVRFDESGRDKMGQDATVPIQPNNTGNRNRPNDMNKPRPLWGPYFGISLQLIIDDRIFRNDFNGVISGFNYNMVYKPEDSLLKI
The conditions noted are these: protein: recombinant;recombinant; tags: His6 removed by TEV;; copies: 1;1.

The target in data set [2] is T2, Mex67LRR-NTF2L;Mtr2 (Saccharomyces cerevisiae;Saccharomyces …, UniProt Q99257;P34232 101-487;1-184, |).
T2 sequence 1: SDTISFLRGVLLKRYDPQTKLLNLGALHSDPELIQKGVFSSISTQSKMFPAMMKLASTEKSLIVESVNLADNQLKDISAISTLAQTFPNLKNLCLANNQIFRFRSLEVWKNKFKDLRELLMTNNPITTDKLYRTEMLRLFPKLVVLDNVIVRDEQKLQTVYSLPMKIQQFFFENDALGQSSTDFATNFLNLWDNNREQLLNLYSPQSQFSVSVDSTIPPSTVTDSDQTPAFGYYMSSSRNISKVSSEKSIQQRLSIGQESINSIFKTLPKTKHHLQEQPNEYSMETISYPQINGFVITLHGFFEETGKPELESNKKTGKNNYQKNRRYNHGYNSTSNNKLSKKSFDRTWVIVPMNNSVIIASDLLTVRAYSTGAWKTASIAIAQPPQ
T2 sequence 2: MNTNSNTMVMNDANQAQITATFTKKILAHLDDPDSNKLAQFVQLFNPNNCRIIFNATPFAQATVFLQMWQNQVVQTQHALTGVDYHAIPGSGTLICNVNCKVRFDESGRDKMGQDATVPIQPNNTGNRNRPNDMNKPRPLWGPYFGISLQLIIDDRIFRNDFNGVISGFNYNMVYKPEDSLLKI
The conditions noted are these: protein: recombinant;recombinant; tags: His6 removed by TEV;; copies: 1;1.

Data set [3] has as its target T3, Mex67 (full length):Mtr2;Mtr2 (Saccharomyces cerevisiae;Saccharomyces …, UniProt Q99257;P34232 1-599;1-184, |).
T3 sequence 1: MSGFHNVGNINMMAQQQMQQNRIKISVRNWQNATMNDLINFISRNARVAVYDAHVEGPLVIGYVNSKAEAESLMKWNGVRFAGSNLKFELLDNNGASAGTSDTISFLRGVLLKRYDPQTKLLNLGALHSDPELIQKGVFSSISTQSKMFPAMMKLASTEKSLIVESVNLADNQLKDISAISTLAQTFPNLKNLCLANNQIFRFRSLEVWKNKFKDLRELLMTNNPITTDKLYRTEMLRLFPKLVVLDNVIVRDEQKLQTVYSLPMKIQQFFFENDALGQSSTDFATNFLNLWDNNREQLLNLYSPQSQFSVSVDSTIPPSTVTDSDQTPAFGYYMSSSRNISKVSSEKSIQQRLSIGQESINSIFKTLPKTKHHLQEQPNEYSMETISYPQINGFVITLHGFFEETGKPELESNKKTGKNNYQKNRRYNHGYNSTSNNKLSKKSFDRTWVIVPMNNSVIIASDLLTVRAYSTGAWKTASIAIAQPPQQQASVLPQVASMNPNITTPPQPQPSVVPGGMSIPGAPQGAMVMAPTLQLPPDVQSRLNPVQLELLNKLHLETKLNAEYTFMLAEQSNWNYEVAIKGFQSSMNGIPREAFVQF
T3 sequence 2: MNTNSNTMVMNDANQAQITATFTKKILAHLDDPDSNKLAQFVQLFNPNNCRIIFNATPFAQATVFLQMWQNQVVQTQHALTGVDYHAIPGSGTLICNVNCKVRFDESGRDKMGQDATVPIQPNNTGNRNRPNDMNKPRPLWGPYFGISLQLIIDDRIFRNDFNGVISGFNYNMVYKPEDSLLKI
The conditions noted are these: protein: recombinant;recombinant, tags: His6 removed by TEV;, copies: 1;1.

For data set [4], the target named is T4, Mex67NTF2L;Mtr2 (Saccharomyces cerevisiae;Saccharomyces …, UniProt Q99257;P34232 264-487;1-184, |).
T4 sequence 1: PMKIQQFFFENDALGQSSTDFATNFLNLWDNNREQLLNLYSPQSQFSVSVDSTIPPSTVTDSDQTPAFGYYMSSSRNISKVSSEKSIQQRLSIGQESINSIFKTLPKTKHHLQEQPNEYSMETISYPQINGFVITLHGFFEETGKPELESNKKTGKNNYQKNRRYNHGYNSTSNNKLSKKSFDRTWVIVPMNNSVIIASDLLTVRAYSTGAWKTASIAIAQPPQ
T4 sequence 2: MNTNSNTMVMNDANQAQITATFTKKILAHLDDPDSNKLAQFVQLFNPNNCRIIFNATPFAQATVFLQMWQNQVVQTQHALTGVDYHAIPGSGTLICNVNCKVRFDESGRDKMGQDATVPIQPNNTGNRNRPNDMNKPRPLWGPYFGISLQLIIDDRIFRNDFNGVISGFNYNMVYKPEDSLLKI
Conditions: protein: recombinant;recombinant; tags: His6 removed by TEV;; copies: 1;1.

Data set [5] concerns the target T5, Mex67ΔUBA;Mtr2 (Saccharomyces cerevisiae;Saccharomyces …, UniProt Q99257;P34232 1-487;1-184, |).
T5 sequence 1: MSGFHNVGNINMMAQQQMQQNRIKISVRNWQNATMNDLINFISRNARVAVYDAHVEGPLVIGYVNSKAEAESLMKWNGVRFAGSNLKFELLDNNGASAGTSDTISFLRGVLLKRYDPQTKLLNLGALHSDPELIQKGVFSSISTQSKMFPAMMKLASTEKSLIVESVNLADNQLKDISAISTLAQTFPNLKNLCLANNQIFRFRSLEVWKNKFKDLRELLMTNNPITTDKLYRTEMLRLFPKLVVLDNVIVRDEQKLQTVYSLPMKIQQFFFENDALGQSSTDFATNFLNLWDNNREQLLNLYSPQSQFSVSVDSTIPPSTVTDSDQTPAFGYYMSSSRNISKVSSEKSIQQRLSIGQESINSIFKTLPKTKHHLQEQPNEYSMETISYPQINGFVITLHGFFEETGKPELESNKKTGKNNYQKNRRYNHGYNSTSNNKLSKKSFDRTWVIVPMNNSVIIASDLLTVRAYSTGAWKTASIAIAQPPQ
T5 sequence 2: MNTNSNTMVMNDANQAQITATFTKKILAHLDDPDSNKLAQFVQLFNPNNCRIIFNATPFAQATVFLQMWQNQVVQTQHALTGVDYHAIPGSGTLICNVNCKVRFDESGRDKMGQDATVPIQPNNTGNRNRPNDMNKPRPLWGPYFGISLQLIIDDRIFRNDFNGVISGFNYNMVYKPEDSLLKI
The conditions noted are these: protein: recombinant;recombinant; tags: His6 removed by TEV;; copies: 1;1.

In data set [6] the target is T6, Mex67ΔUBA L263D+M265D;Mtr2 (Saccharomyces cerevisiae;Saccharomyces …, UniProt Q99257;P34232 1-487;1-184, L263D;M265D|).
T6 sequence 1: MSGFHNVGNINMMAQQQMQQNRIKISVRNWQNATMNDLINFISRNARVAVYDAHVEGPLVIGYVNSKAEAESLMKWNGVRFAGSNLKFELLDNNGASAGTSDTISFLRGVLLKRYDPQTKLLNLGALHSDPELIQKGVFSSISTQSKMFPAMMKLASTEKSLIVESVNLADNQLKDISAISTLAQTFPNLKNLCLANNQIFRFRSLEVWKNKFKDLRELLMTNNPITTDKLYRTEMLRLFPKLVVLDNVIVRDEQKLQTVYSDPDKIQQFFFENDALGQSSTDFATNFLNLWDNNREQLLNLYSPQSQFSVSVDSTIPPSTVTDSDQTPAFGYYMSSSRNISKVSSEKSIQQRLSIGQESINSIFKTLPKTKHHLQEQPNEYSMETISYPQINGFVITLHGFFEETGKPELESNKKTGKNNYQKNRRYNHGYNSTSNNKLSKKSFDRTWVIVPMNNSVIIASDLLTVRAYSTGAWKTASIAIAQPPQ
T6 sequence 2: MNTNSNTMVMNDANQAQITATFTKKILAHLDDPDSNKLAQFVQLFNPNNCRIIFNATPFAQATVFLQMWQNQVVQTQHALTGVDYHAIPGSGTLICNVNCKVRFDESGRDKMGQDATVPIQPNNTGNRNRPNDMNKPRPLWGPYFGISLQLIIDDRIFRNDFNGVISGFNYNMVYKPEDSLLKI
The conditions noted are these: protein: recombinant;recombinant; tags: His6 removed by TEV;; copies: 1;1.

Data set [7] has as its target T7, Mex67ΔUBA L263A+M265A;Mtr2 (Saccharomyces cerevisiae;Saccharomyces …, UniProt Q99257;P34232 1-487;1-184, L263A;M265A|).
T7 sequence 1: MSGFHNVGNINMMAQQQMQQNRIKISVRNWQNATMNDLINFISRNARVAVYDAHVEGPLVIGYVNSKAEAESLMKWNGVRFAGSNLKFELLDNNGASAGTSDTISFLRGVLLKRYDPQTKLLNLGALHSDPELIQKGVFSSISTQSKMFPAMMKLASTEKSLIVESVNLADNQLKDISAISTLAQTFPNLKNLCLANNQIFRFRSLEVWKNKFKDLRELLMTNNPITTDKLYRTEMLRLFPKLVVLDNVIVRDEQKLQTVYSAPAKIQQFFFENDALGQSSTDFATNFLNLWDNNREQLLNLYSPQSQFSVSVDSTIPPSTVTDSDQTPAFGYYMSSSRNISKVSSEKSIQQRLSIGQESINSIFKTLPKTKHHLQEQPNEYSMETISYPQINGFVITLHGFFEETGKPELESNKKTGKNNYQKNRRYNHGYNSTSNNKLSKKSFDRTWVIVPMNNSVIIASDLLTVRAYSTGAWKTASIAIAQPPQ
T7 sequence 2: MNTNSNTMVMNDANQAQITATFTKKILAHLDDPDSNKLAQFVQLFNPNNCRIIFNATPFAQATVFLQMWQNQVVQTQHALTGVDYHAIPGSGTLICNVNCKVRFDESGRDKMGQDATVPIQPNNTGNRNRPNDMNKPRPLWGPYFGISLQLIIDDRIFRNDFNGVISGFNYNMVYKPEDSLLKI
Conditions: protein: recombinant;recombinant; tags: His6 removed by TEV;; copies: 1;1.

In data set [8] the target is T8, Mex67RRM-LRR (Saccharomyces cerevisiae, UniProt Q99257 2-262).
T8 sequence: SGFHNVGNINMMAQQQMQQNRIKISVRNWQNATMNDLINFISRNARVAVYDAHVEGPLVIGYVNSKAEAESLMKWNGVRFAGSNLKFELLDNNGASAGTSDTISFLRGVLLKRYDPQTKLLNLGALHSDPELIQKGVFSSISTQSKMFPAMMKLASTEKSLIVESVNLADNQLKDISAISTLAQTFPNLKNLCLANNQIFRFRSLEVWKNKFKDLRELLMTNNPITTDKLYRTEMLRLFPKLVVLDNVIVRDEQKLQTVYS
The conditions noted are these: protein: recombinant; tags: His6 removed by TEV.

In the case of AAAAAAAAAAAAAAA (ssRNA) [A15], the dissociation constant (Kd) worked out at 420 nM in data set [1]; 340 nM in data set [2]; 260 nM in data set [3]; 860 nM in data set [4]; 310 nM in data set [5]; 820 nM in data set [6]. Further, the dissociation constant (Kd) stood at 640 nM in data set [7] and 12000 nM in data set [8].
Regarding GGGGGGGGGGGGGGG (ssRNA) [G15], the binding result in data set [3] (may form higher order structure) is listed as “binds”.
